The target in the series is T1, FilR1 (Methanosaeta harundinacea 6Ac) (UniProt G7WMP6).
T1 sequence: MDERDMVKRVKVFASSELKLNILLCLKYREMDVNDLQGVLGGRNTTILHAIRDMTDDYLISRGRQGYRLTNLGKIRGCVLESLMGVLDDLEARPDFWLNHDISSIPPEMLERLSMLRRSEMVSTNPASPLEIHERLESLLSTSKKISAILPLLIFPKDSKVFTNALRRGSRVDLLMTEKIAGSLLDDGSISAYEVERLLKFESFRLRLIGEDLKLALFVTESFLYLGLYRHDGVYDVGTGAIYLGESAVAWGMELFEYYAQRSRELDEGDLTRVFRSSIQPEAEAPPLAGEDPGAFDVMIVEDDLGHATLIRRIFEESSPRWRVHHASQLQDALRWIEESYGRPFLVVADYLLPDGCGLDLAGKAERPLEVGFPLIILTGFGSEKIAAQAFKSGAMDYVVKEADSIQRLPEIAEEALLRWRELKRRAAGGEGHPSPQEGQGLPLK
In words: EMSA. The conditions noted are these: EMSA: 10 mM Tris-HCl pH 8.0, 50 mM KCl, 10 mM MgCl2, 1 mM DTT, 2.5% glycerol, 1% NP-40, 0.5 mM EDTA, 1 ug/uL poly dI-dC, 10 fmol (0.5 nM) biotin probe, 20 uL ….
For the sequence “ACCCGTTTGACCATATCCCTTTCGTCCATGTTGAGGTCCCCCTCATTTTAAGGGCCTAAATGGCGTAGATCCACGAAAGCCGGGAGCGATTCGCGATCCGACGGAACAACTCCCCAGTTATCGGCTTGATATCAGCCTCCACCCTCCAATTTCGCGAGCCCATCTCCTCGGCTTGAGTTTTTTCCTTGATTTCGCCGTATAAGTAGCTTCCGACGATCCCGATGCTGATAGAAGCTCTGAAGTTCTCATCGTACCG (double strand) [PfilR1 (filR1 promoter)]”, the binding entry is listed as “binds”.
Then “AAACCGCCCTCCTCTCCAGCCTCTCACCATTTCAACCTGGCGGATTGAGTTCAATCTAAATGGATTTTTATCAATTTAATTGGATATCCTCCCATCAAAACATAATCGGTAATTTTTAGCATTAAATCACCGTCACGATTTCACAAACTTAAATGTATATGTGTTCTAATCAATAAACTAAACAATAATATTCTCATTATACTAGTTGCCAATCCGAAAGGGTTTTATCTTCTACATGCGACTACCGAGCAAACCAGAGTACAGAAGGAGGTCAAGC (double strand) [cdhBEA promoter]”, with “no binding”.
As to “GCTAACCATGTCCATTTGCTCTCCTCCTTTTTAATTCTTGCCAAATCATAGTAATCTATGAAAAATTTGGCCAGTAACGTACTGACTATCGGTTACTGGACTTATAAAGCTTTCGAAATGGAAATGAAAGCCCCATTTTTGTTTTTTGTCCCGGTTTTAGTGAGCCCGAAAGATCTGAAATCCCCAAATAAAAGCCTGAAATATAAAAAAAACAAGGAAGAACAGTTTGGGGCGAA (double strand) [Pmtr]”, the binding entry is “binds”.
On to “CCATCCCTCTCCCTCAAGATATAGGAGGGAAAAGGTGGACGCTCACTTGGCGAGCGTCACCTTCTCGATGGTAACCTTGGCGTCCTTGAGGATCAGCTTGATCCCGCCCGCTCCGCCCGCCGACATGGCAAAGGCGGGGGCAGCTCCTGCCGCCGGGGCTGCTGCTGCGGCCGGAGCCGCCGCGGCAGGTGCTCCAGGTTCCTTCGACTTCAGCTTCAGTGACAGTTTCTTGGCCATTCCTATAACCTCCTACACCCTCAAATACAGAGATACTATAAATTC (double strand) [cdhCD promoter]”, for which the binding result was “no binding”.
For “GGTCGGAGAGGCTGAGGGCGATCCCCGTCGTCGTCCTCACCACCTCCACCAGCGACGACGACCTCCGGCGGGCCTACTCCAACCACGTCAACAGCTACCTCATCAAGCCCCTCAGCTTCGAGGACCTGAAGCGGACCGTCGAGGAGATCAAAGAGTACTGGCTTGGATGGAACCGCTCCCCCGGACCCGCGTGAAAGACCCCAGAGGTGAGCGAAACCGAGGCCTTCACCCATGACGCTGCGCC (double strand) [UfilI (internal fragment of filI)]”, the binding entry is given as “no binding”.
The result for “AACGGGTTCCATCTCGATATGATCAAGGGGTGGGGGGTTTATTAATAGGTTGAGGTCCCCCTCTCGAGGCCCGGAAAGGGCAAGAGATCCCCCGATAGATTTTTATCGACCGCATATTATCGAATTTTCCCCCGGCAGAGAGGCGGAGGCTTTATACCATTTTGGCATATCGAGGGTGAGTGGGTGAATCGGCATGGCGGAG (double strand) [Pacs1]” reads “binds”; that for “AGATGAAACCAGAATTATCGTTGAAGATCCCTCCCTCCGAAGATCTCCGATGGATCTCATCGATGGAACCATCTGAGGAGGCGGATCGTCGTCACCGGTTCCCCACCCGCGATGGACAATTATTCGTTATACTCGGAGGGTTATCTTCATAAACCACGGACGGATGACAGTAAGGCAGGTGCGAGGCCTTCATCACCCAGTGGACGGAGAGACAATCTCGTTTTGGAGGAGGTTGAAAGGAAG (double strand) [PfilI-R2 (filI-filR2 promoter)]”, “binds”; that for “AATCCACCTAAACTCACCCATATTATGCCAGTTTGAAGCCTTTTAGGACCGACCGCATCACTGCTTAGCGGTAGTGATGCTAATCGATTTTCTCATAAACCTTTTATATCAGTACCTTGTGTTTAGCTCTTACGGCTAATGGAGGTAAAAAATGAGCGGCGAATTGGTG (double strand) [fpo promoter]”, “no binding”.
The result for “CCATTAGGAGCCGTCGATTCAGCTGTTTTTGATTTTCAGGATTTATACCCGGCCGATATTCCATATTTTGGAATCTATAATGATTAAAAGGCCACTAACCTTATTAATCATGAAGATTACTAATCGACATGGTCCAGTCGAGCGTTCTCTATAGACAAACGGAGAGAATGCGTGGCAGATTCTGGTTTGAAATCTCCGTATTGGAGCTGGTATCTGCCCGGGGATCTGGGGAGAGAAGAGTGCAAAATATTCGATCTTTGATTAAGGAGGGTTGAAATTGGCT (double strand) [Pacs4]” reads “binds”; that for “AACCCCCATAAATGATAGATCCGAAAGTAATTAAATAAATCGGTCGGTCTTCGGCCGCGGGTGGAACCAGAGGATCCCATCAGCTATGAGGGGGATCGTCAGGTGGACCGCCCTTTGAAGGATCATCCATCTCCTGAGACCTCCAGACCCCGGCGAGATGGCCGTTAGTCTCCATAAGCTCTCTCCAGCTGCCGGATTCGACAAATCGCCCCCTCTCCAGGACCTGGATCATTACCGAGGAGAGGTTTTGCCC (double strand) [Pomp]”, “binds”.

Source of the values: publication PMC3991700.
